Results as given in US9290743B2, “L-aspartate oxidase variant and a method for producing quinolinate or nicotinic acid using the same” (CJ CHEILJEDANG CORP., priority 2013, dated 2016).

Tested on: L-aspartate oxidase
Assay: Activity test of L-aspartate oxidase variants (H2O2, Amplex Red, absorbance at 560 nm) with NAD added
Assay type: biochemical, E. coli
Procedure: After the recombinant vector pT7-nadB, pT7-nadB67, pT7-nadB67(V), pT7-nadB67(L), pT7-nadB67(I), or pT7-nadB67(H) was transformed into a tuner strain via CaCl2 method, the transformed strain was smeared on a LB-SP (yeast extract 10 g/L, NaCl 5 g/L, tryptone 10 g/L, and spectinomycin […]) plate medium, and cultured overnight at 37[…] to select spectinomycin-resistant colonies. One colony was selected from them and cultured in a LB-SP (yeast extract 10 g/L, NaCl 5 g/L, tryptone 10 g/L, spectinomycin […]) liquid medium, and then a isopropyl-1-thio-β-D-galactopyranoside (IPTG) derivative was added thereto when the growth optical density (OD) value reached to 0.4, and cultured at about 18[…] overnight. Cells including the overexpressed wild type L-aspartate oxidase and L-aspartate oxidase variants were recovered from the culture medium, followed by purification of the wild type L-aspartate oxidase and L-aspartate oxidase variants from the recovered cells by Ni-NTA spin kit (Quiagen, U.S.A). The recovered protein was 50% of a total protein, about 2% of the recovered protein was recovered as L-aspartate oxidase.
The L-aspartate oxidase converts aspartate as a substrate to iminoaspartate in the presence of an FAD as cofactor, and the imminoaspartate is converted b to oxaloacetate. Hydrogen peroxide (H2O2), that is generated through the above-described reaction, was used to identify the activity of the nadB. Absorbance at 560 nm of a reaction product of H2O2 with a product from the reaction was measured using an Amplex Red (Invitrogen, Korea) to determine the activity of the nadB. Here, NAD was added at different concentrations to create a condition for competitive inhibition to FAD so as to evaluate the resistance of L-aspartate oxidase against the feedback regulation by NAD.

B1: Wild type-nadB: His-tagged wild type E. coli L-aspartate oxidase (SEQ ID NO: 1) purified from pT7-nadB expression (protein)
chain: MNTLPEHSCDVLIIGSGAAGLSLALRLADQHQVIVLSKGPVTEGSTFYAQGGIAAVFDETDSIDSHVEDTLIAGAGICDRHAVEFVASNARSCVQWLIDQGVLFDTHIQPNGEESYHLTREGGHSHRRILHAADATGREVETTLVSKALNHPNIRVLERSNAVDLIVSDKIGLPGTRRVVGAWVWNRNKETVETCHAKAVVLATGGASKVYQYTTNPDISSGDGIAMAWRAGCRVANLEFNQFHPTALYHPQARNFLLTEALRGEGAYLKRPDGTRFMPDFDERGELAPRDIVARAIDHEMKRLGADCMFLDISHKPADFIRQHFPMIYEKLLGLGIDLTQEPVPIVPAAHYTCGGVMVDDHGRTDVEGLYAIGEVSYTGLHGANRMASNSLLECLVYGWSAAEDITRRMPYAHDISTLPPWDESRVENPDERVVIQHNWHELRLFMWDYVGIVRTTKRLERALRRITMLQQEIDEYYAHFRVSNNLLELRNLVQVAELIVRCAMMRKESRGLHFTLDYPELLTHSGPSILSPGNHYINR
modifications: His tag; amino acid sequence of nadB
**Q.** Which results are given for B1?
**A.** Relative activity (NAD 0 mM): 100%; Relative activity (NAD 0.05 mM): 95%; Relative activity (NAD 0.3 mM): 82%; Relative activity (NAD 0.5 mM): 65%; Relative activity (NAD 1 mM): 22%; Relative activity (NAD 1 mM, listed as wild type L-aspartate oxidase): less than 50%
